# From the nanobody polyreactivity screen of Harvey et al. (2022)
# Experiment: yeast display, Sf9 membrane polyspecificity reagent, FACS + sequencing; frameworks hold sequencing errors
# Summary of the method: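 Nanobodies from a synthetic yeast display library (Saccharomyces cerevisiae BJ5465), induced 36–48 hours with galactose, were stained 1 hour at 4 °C with 10% biotinylated, detergent-solubilized Sf9 membrane reagent, enriched on streptavidin microbeads, then FACS-sorted. Anti-HA (expression) and streptavidin (reagent binding) fluorescence set low and high (top ~1%) gates. Polyreactivity labels come from the gate of origin. Genes were colony-PCR amplified, MiSeq 2 × 250 sequenced and filtered by CDR length.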
row,Sequence,polyreactivity (PSR sort gate)
1,QVQLVESVGGLVQAGGSLRLSCAASGNIFRGYTMGWYRQAPGKESELVATITWTGVSTFYADSVKGRFTISRDNAKNTVYLQMNSLKPEDTAVYYCAAYYPSHDYSGFWSDTYEYWGQGTQVTVSS,low polyreactivity
2,QVQLVESVGGLVQAGGSLRLSCAASGRIFDRYAMGWYRQAPGKERELVAAISSSGGSTYYADSVKGRFTISRDNAKNTVYLQMNSLKPEDTAVYYCAAPRSRSRTSRFDYWGQGTQVTVSS,high polyreactivity
3,QVQLVESVGGLVQAGGSLRLSCAASGRIFQYYAMGWYRQAPGKERELVAAITRSGGRTYYADSVKGRFTISRDNAKNTVYLQMNSLKPEDTAVYYCAARDWYYTMYYWGQGTQVTVSS,high polyreactivity
4,QVQLVESVGGLVQAGGSLRLSCAASGRIFSYNAMGWYRQAPGKERELVAAITWRGGNTYYADSVKGRFTISRDNAKNTVYLQMNSLKPEDTAVYYCNAVGYSKYYVRTGREFDYWGQGTQVTVSS,high polyreactivity
5,QVQLVESVGGLVQAGGSLRLSCAASGRIFYFNGMGWYRQAPGKERELVAAITISTGSTYYADSVKGRFTISRDNAKNTVYLQMNSLKPEDTAVYYCNVEFEYSGWKSFDYWGQGTQVTVSS,low polyreactivity
6,QVQLVESVGGLVQAGGSLRLSCAASGRTFAQNALGWYRQAPGKERELVAAIRSGGRTNYADSVKGRFTISRDNAKNTVYLQMNSLKPEDTAVYYCAAEWGYWSFYLGRAKVEYWGQGTQVTVSS,low polyreactivity
7,QVQLVESVGGLVQAGGSLRLSCAASGRTFAYYAMGWYRQAPGKERELVAAISYRGGTTYYADSVKGRFTISRDNSKNTVYLQMYILKQEDTAVYYCAAKVGVSWYGYWGKGTQVTVSS,high polyreactivity
8,QVQLVESVGGLVQAGGSLRLSCAASGRTFGRYAMGWYRQAPGKERELVAGISRSGDSTHYADSVKGRFTISRDNAKNTVSLQMNSLKPEDTAVYYCNKETPTIGARKYEYWGQGTQVTVSS,low polyreactivity
9,QVQLVESVGGLVQAGGSLRLSCAASGRTFHGNAMRWYRQARGKERELVAAISYSGGRTYYADSVKGRFTISRDNAKNTVYLQMNSLKPEDTAVYYCAAWGSSYSFDYWGQGTQVTVSS,high polyreactivity
10,QVQLVESVGGLVQAGGSLRLSCAASGRTFNYYARGWYRQAPGKERELVAAISWSGTPTYYADSVKGRFTISRDNAKNTVYLQMNSLKPEDTAVYYCAAYLVSYPRGNYIRYDYWGQGTQVTVSS,low polyreactivity
11,QVQLVESVGGLVQAGGSLRLSCAASGRTFRKYAMGWYRQAQGKERELVASITYSGGSTYYADSVKGRFTISRDNAKNTVYLQMNSLKPEDTAVYYCAARLHWIRYPQTLYDYWGQGTQVTVSS,high polyreactivity
12,QVQLVESVGGLVQAGGSLRLSCAASGRTFSKYAMGWYRQEPGQERELVAAITSRGSSTYYADSVKGRFTISRDNANNTVYLQMNSLKPEETAVYYCNAGGYSKRTGRYRSGSDYWGQGTHVTVSS,high polyreactivity
13,QVQLVESVGGLVQAGGSLRLSCAASGRTFYFYAMGWYRQAPGKERELVAAITSGDTTHYADSVKGRFTISRDNAKNTVYLQMNSLKPDDTAVYYCAADKFKKISGYQRRSNYWGQGTQVTVSS,low polyreactivity
14,QVQLVESVGGLVQAGGSLRLSCAASGRTFYHYAMGWYRQAPGKERELVAAITWSGGSTYYADSVKGRFTISRDNAKNTVYLQMNSLKPEDTAVYYCAAAYRPWRGGYYPVGYYYWGQGTQVTVSS,high polyreactivity
15,QVQLVESVGGLVQAGGSLRLSCAASGRTFYRYAMGWYRPAPGKERELVAAITASGGSTYYADSVKGRFTISRDNAQNTVYLQMKSLKPEDTAVYYCAKGGKSRYSTWHGDYWGQGTQVTVSS,high polyreactivity
16,QVQLVESVGGLVQAGGSLRLSCAASGRTIVTNAIGWYRQAPGKERELVAAISRRTGSTYYADSVKGRFTISRDNAKNTVYLQMNSLKPEDTAVYYCAAKGYGSAPTYRHNYWGQGTQVTVSS,high polyreactivity

row,Sequence,polyreactivity (PSR sort gate)
1,QVQLVESVGGLVQAGGSLRLSCAASGRTLFTNGMGWYRQAPGKESELVAAISTSGGSTHYADSVKGRFTISRDNAKNTVYLQMNSLKPEDTAVYYCAVDVLTVGQSYDHWGQGTQVTVSS,high polyreactivity
2,QVQLVESVGGLVQAGGSLRLSCAASGSIFDSNAMGWYRQAPGKVRELVASITSSGGSTYYADSVKGRFTISRDNAKKTVYLQMNSLKPEDTAVYYCAAKQAQRRYRQWSTSGYWGQGTQVTVSS,high polyreactivity
3,QVQLVESVGGLVQAGGSLRLSCAASGSIFDWNAMGWYREAPGKERELVASIDWDGGRTYYADSVKGRFTISRDNAKNTVYLQMNSLKPEDTAVYYCAATYYYDWWRGRWSPHIMDYWGQGTQVTVSS,low polyreactivity
4,QVQLVESVGGLVQAGGSLRLSCAASGSIFEWSAMGWYRQAPGKERELVADISSVGSTYYADSVKGRFTISRDNAKNTVYLQMNSLKPEDTAVYYCAADGTWVRSPHFYYWGQGTQVTVSS,low polyreactivity
5,QVQLVESVGGLVQAGGSLRLSCAASGSIFGRYVMGWYRQAPGKERELVAAITSGGTTNYADSVKGRFTISRDNAKHTVYLQMNSLKPEDTAVYSCNADYYSRIVGVRIYDYWGQGTQVTVSS,low polyreactivity
6,QVQLVESVGGLVQAGGSLRLSCAASGSIFGSYAMGWYRQAPGKERELVAAITYSGTSTYYADSVKGRFTISRDNAKNTVYLQMNSLKPEDTAVYYCYAVSRHRSKFDYWGQGTQVTVSS,high polyreactivity
7,QVQLVESVGGLVQAGGSLRLSCAASGSIFGVYAMGWYRQAPGKERELVATISRSGAITYYADSVKGRFTISRDNAKNTVYLQMNSLKPEDTAVYYCAADFFSREWGQGTQVTVSS,low polyreactivity
8,QVQLVESVGGLVQAGGSLRLSCAASGSIFGYYAMGWYRPAPGKERELVATITWGGGSTYADSVKGRFTISRDNAKNTVYLQMNSLKPEDTAVYYCNAGYRYTSAQVTWEYDYWGQGTQVTVSS,low polyreactivity
9,QVQLVESVGGLVQAGGSLRLSCAASGSIFNYYAMGWYRQAPGKERELVAAITTSGGNTYYADSVKGRFTISRDNPKNTVYLQMNSLKPEDTAVYYCAADYWASGGEYDYWGQGTQVTVSS,low polyreactivity
10,QVQLVESVGGLVQAGGSLRLSCAASGSIFQPYAMGWYRQAPGKERELVAAISIGDSTNYADSLKGRFTISRDNAKNTFYLQMNSLIPEDTAVYYCNTTGEYYDYWGQGTQVTVSS,low polyreactivity
11,QVQLVESVGGLVQAGGSLRLSCAASGSIFSAYAMGWYRQAPGKERELVASISWSGSSTYADSVKGRFTISRDNAKNTVYLQMNSLKPEDTAVYYCAAGYYSFRSAYDYWGQGTQVTVSS,high polyreactivity
12,QVQLVESVGGLVQAGGSLRLSCAASGSIFSWYAMGWYRQAPGNARELVAAIRRGGSTYYADSVKGRFTISRDNATNTVYLQMNSLKPEDTAVYYCADRVYTAASRGRGDYWGQGTQVTVSS,low polyreactivity
13,QVQLVESVGGLVQAGGSLRLSCAASGSIFVTYAMGWYRQAPGKERELVAVITWGGGSTYYADSVKGRFTISRDNAKNTVYLQMNSLIPEDTAVYYCAKDSYYYRRDVNVDYWGQGTQVTVSS,low polyreactivity
14,QVQLVESVGGLVQAGGSLRLSCAASGSIISFNAMGWYRQAPRKERELVASISRNGGSSYYADSVKGRFTISRDNAKNTVYLQMNSLKPEDTAVYYCAVKVRNRRYGYWGQGTQVTVSS,high polyreactivity
15,QVQLVESVGGLVQAGGSLRLSCAASGSILWLYAMGWYRQAPGKERELVAAISGSGRTNYADSEKGLFTISRDNAKNTVYLQMNSQKPEDTAVYYCARVHGTSESKYYYWGQGTQVTVSL,low polyreactivity
